Experimental data reported in patent publication US20100093602A1 (CASE WESTERN RESERVE UNIVERSITY, published 2010).

B1: human N-cadherin-Fc (R&D Systems) (Fc fusion, UniProt P19022 160-724, looked up)
chain: DWVIPPINLPENSRGPFPQELVRIRSDRDKNLSLRYSVTGPGADQPPTGIFIINPISGQLSVTKPLDREQIARFHLRAHAVDINGNQVENPIDIVINVIDMNDNRPEFLHQVWNGTVPEGSKPGTYVMTVTAIDADDPNALNGMLRYRIVSQAPSTPSPNMFTINNETGDIITVAAGLDREKVQQYTLIIQATDMEGNPTYGLSNTATAVITVTDVNDNPPEFTAMTFYGEVPENRVDIIVANLTVTDKDQPHTPAWNAVYRISGGDPTGRFAIQTDPNSNDGLVTVVKPIDFETNRMFVLTVAAENQVPLAKGIQHPPQSTATVSVTVIDVNENPYFAPNPKIIRQEEGLHAGTMLTTFTAQDPDRYMQQNIRYTKLSDPANWLKIDPVNGQITTIAVLDRESPNVKNNIYNATFLASDNGIPPMSGTGTLQIYLLDINDNAPQVLPQEAETCETPDPNSINITALDYDIDPNAGPFAFDLPLSPVTIKRNWTITRLNGDFAQLNLKIKFLEAGIYEVPIIITDSGNPPKSNISILRVKVCQCDSNGDCTDVDRIVGAGLGTGA
notes: also called N-cadherin substrate; purified N-cadherin substrate; not shown: Fc part of the bought fusion

Tests used:
[1] = target: T1, N-cadherin expressed on human glioblastoma LN-229 cells (human, UniProt P19022 160-906); test: cell adhesion assay: LN-229 cells on spots of N-cadherin-Fc on nitrocellulose-coated dishes; this is the pair whose adhesion ADH-1 reduces
T1 construct: whole, on cells
T1 sequence (looked up): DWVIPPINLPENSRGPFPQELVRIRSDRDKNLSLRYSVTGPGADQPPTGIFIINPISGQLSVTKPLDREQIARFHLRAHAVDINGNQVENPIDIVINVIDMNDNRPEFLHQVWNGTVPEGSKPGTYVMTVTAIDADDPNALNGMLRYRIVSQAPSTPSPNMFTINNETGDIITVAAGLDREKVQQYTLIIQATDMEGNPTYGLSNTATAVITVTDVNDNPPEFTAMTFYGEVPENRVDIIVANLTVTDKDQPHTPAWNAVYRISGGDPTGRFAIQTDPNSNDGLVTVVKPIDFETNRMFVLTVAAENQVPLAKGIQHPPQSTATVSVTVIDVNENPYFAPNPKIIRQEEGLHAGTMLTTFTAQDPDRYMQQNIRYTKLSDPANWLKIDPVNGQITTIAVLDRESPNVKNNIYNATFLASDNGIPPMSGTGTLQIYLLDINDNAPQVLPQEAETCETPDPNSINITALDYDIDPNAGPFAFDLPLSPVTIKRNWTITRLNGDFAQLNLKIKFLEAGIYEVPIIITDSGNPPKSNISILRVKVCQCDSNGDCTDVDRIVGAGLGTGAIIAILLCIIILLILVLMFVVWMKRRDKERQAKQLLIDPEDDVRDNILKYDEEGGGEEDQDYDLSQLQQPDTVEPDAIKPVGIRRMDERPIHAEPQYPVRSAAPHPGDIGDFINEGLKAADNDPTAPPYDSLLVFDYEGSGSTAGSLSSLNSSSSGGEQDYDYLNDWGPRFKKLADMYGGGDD
Procedure: Sterile 35 mm tissue culture dishes were coated with nitrocellulose in methanol and allowed to dry. Distinct spots, containing 50 ng of either purified Laminin (Sigma) or N-cadherin-Fc (R&D Systems), were made by spotting 10 μl of protein solution on the nitrocellulose-coated tissue culture dishes. Each dish contained two distinct spots of both Laminin and N-cadherin-Fc. After a 20-min incubation at room temperature, the protein solutions were aspirated. Remaining binding sites on the nitrocellulose were blocked with 2% BSA in PBS, and the dishes were rinsed with DMEM (Invitrogen).
4×10⁵ cells were added to each tissue culture dish in the presence of N-cadherin peptidomimetic small molecules, reconstituted in either DMSO or 0.3% cyclodextrin, and diluted in DMEM supplemented with 10% fetal bovine serum (HyClone). In the control experiments, either DMSO or cyclodextrin was added with LN-229 cells in the absence of the peptidomimetic small molecules. The cells were allowed to adhere to the protein substrate for 2 hours at 37° C., 5% CO₂. After incubation, the medium was removed and the tissue culture dishes were rinsed once with PBS to remove any unattached cells. Cells were fixed with 4% PFA, 0.01% glutaraldehyde in PEM buffer for 10 minutes at room temperature and rinsed once in PBS prior to imaging.

[2] = target: B1; test: cell-based or functional assay

## B1
[1]
  binding result: binds

## Ac-CHAVC-NH2 (also: cyclic peptide, cyclising bond not given here) [ADH-1 (short cyclic HAV peptide N-Ac-CHAVC-NH2)]
[2]
  IC50 for inhibition of RGC neurite outgrowth: 2.33 mM
